According to patent US20190062438A1 (CSL, published 2019):

Columns and labels:
[1] = target: T1, soluble Homo sapiens CD131 comprising a C-terminal 6xHis tag (human, UniProt P32927 17-438); test: SPR, kinetics, Fab over captured shCD131
T1 construct: truncated after Ser438, C-terminal 6xHis; also called shCD131; shβc
T1 sequence: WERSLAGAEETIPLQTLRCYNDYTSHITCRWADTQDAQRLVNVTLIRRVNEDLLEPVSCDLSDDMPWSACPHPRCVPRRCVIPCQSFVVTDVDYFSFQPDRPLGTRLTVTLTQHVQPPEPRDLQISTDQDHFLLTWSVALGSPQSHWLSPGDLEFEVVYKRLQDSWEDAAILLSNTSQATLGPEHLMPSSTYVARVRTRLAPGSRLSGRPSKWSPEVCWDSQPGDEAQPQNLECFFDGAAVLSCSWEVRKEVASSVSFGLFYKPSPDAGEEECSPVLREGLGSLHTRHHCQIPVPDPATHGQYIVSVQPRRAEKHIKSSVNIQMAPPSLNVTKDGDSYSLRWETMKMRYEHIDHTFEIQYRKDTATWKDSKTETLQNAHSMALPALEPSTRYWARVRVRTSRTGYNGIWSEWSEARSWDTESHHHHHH

shCD131 N37A = target: T2, shCD131 N37A (human, UniProt P32927 17-438); test: SPR, steady state, Fab over captured mutant
T2 construct: C-terminal 6xHis
T2 sequence: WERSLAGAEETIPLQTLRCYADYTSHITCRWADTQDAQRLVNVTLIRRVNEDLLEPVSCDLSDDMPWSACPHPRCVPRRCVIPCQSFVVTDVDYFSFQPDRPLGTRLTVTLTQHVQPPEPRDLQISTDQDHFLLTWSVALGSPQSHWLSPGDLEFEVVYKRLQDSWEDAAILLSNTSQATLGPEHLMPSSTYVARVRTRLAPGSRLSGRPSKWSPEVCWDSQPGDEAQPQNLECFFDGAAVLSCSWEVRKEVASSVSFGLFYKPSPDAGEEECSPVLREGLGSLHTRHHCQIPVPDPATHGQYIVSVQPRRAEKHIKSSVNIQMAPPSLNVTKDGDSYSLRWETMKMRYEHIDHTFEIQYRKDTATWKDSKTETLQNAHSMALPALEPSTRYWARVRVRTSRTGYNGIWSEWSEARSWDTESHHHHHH
Experimental: (§1) For some analysis purified Fab was injected over each flow cell for 3 minutes and dissociation was monitored for a further 10 minutes. Regeneration of the surface was performed after each cycle with a 40 second injection of 25 mM glycine, pH 2.0. The analysis was performed with Fabs at several concentrations between 100 and 0.31 nM, with each concentration analyzed twice and in random order. The analysis was performed at a flow rate of 30 μl/min in HBS-EP buffer (10 mM Hepes, 150 mM NaCl, 3 mM EDTA, 0.005% Tween 20, pH 7.4) at 37° C. Responses from spots 2 and 4 of each flow cell, (in which shβc was not captured, but otherwise treated identically), were subtracted from those of spots 1 and 5 respectively to produce reference subtracted data. Reference subtracted responses from a blank injection comprising buffer alone were subtracted from the resultant sensorgrams to produce double referenced data suitable for kinetic analysis. Double-referenced sensorgrams were fitted using non-linear regression to a model describing 1:1 kinetics, including a term for mass transport limitation. The Rₘₐₓ value was fitted locally to account for slight deviations in the level of sCD131 captured, with association rate (kₐ), dissociation rate (kd) and equilibrium dissociation constant (KD) fitted globally.
(§2) Mapping of the shCD131 epitope was performed by measurement of the affinity of Fabs for various alanine point mutants of shCD131 essentially as described above, with the following exceptions. Each shCD131 mutant was captured for 120 seconds at concentrations between 1 and 5 μg/ml. For kinetic analysis, purified recombinant Fabs were injected for 2 minutes, and dissociation was monitored for a further 2 minutes. […] Fab concentrations ranged from 16 μM to 3.9 nM in two-fold dilutions. The assays were conducted at 25° C. All sensorgrams were reference subtracted as described above. For determination of steady-state affinity (KD only), the response at the end of the binding phase was used to fit the data to a single-site binding model. Kinetic parameters were determined as described above.

shCD131 I368A = target: T3, shCD131 I368A (human, UniProt P32927 17-438); test: SPR, steady state, Fab over captured mutant
T3 construct: C-terminal 6xHis
T3 sequence: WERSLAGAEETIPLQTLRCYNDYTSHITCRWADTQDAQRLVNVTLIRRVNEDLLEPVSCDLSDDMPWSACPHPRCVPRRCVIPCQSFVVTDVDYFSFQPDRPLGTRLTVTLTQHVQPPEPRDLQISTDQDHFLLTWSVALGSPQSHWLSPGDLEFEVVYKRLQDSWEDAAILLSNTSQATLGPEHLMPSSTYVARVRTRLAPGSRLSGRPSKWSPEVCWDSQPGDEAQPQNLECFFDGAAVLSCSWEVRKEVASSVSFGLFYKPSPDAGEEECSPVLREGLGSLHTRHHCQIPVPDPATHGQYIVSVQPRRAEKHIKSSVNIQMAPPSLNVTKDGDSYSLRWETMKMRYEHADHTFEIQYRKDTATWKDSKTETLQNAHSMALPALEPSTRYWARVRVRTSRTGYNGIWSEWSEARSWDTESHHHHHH
Experimental: as §1, §2

shCD131 G423A = target: T4, shCD131 G423A (human, UniProt P32927 17-438); test: SPR, steady state, Fab over captured mutant
T4 construct: C-terminal 6xHis
T4 sequence: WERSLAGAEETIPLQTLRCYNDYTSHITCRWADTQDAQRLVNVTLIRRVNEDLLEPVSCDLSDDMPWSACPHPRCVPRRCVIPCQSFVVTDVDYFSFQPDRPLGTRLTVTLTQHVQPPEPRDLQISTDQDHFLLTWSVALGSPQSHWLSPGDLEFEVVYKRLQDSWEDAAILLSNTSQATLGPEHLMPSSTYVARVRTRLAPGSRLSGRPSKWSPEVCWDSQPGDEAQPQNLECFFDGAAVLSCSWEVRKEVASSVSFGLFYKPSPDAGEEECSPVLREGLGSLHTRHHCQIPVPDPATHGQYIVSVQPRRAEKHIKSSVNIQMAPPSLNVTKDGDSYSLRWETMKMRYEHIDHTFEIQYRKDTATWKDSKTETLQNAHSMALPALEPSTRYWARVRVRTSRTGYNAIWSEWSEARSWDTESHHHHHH
Experimental: as §1, §2

Kd [1]: 49 nM | Kd (shCD131 N37A): 620 nM | Kd (shCD131 I368A): 4.77 µM | Kd (shCD131 G423A): 197 nM
B1: 9A2 Fab (Fab, V domains shown)
VH: EVQLLESGGGLVQPGGSLRLSCAASGFTFSHYHMLWVRQAPGKGLEWVSSIRSSGGFTYYADSVKGRFTISRDNSKNTLYLQMNSLRAEDTAVYYCARFYDSFFDIWGQGTMVTVSS
VL: DIQMTQSPSSVSASVGDRVTITCRASQGISSWLAWYQQKPGKAPKLLIYAASSLQSGVPSRFSGSGSGTDFTLTISSLQPEDFATYYCQQANSFPITFGQGTRLEIKR
notes: also called recombinant Fab of 9A2
